Measurements reported in paper PMC6955223, “The adaptor proteins HAP1a and GRIP1 collaborate to activate the kinesin-1 isoform KIF5C” (Journal of Cell Science, 2019).

Target: T1, KIF5C–Halo (UniProt P28738 1-956, HaloTag TMR ligand on the HaloTag)
T1 construct: kinesin-1 heavy chain KIF5C; construct from Twelvetrees et al., 2016; also called KIF5C labelled with HaloTag TMR ligand; motor; source: COS cells, transfected, in lysate
T1 sequence (looked up): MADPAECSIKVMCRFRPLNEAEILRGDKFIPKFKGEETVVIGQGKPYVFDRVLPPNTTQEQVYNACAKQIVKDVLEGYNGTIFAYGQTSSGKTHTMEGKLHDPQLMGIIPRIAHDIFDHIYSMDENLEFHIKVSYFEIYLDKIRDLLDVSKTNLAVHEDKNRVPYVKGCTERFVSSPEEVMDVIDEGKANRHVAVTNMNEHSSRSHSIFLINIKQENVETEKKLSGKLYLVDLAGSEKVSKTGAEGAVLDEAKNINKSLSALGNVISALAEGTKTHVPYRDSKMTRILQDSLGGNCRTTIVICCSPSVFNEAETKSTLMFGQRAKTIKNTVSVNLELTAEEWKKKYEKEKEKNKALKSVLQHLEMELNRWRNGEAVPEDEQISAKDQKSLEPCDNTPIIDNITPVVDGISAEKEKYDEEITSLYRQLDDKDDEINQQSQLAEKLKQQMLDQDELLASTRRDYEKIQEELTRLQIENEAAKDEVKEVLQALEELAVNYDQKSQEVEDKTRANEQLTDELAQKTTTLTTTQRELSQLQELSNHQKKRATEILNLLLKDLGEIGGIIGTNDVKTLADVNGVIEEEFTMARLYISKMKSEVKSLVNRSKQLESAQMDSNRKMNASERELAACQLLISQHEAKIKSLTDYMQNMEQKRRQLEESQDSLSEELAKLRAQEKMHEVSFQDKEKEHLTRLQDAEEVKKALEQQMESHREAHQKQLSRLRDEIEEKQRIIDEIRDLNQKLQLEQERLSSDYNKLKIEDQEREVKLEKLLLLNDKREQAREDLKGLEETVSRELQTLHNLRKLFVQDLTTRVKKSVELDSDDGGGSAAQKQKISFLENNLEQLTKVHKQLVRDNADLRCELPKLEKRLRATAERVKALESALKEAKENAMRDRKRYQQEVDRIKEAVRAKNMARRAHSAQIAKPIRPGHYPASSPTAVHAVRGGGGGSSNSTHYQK
Assay: counting of GFP photobleaching steps (TIRFM); motor–adaptor complexes from mixed cell lysates immobilised on microtubules with 15 mM AMP-PNP instead of ATP; GFP-labelled HAP1a and GRIP1 both present; bleaching steps counted for each spot
Details: partners not purified

- stoichiometry N: 2 HAP1a molecules per motor
B1: GFP-labelled HAP1a (natural protein, rat, UniProt P54256-2 1-599, looked up)
chain: MRPKDQVQSSAGDGTGSGDPATGTPTTQPAADPAPEPSAEPKPAPAQGTGSGQKSGSRTKTGGSFCRSRIRGDSDAPWTRYIFQGPYGPRATGLGTGRAEGIWKTPAAYIGRRPGVSGPERAAFIRELQEALCPNPLPRKKITEDDIKVMLYLLEEKERDLNTAARIGQSLVKQNSVLMEENNKLETMLGSAREEILHLRKQVNLRDDLLQLYSDSDDDEEDEEDEEEEEGEEEEREGQRDQDQQHDHPYGAPKPPPKAETLHHCPQLEALKQKLKLLEEENDHLREEASHLDNLEDKEQMLILECVEQFSEASQQMAELSEVLVLRLEGYERQQKEITQLQAEITKLQQRCQSYGAQTEKLQQQLASEKGVHPESLRAGSHMQDYGSRPRERQEDGKSHRQRSSMPAGSVTHYGYSVPLDALPSFPETLAEELRTSLRKFITDPAYFMERCDTRCREERKKEQGTMPPPPVQDLKPPEDFEAPEELVPEEELGAIEEVGTAEDGPAEETEQASEETEAWEEVEPEVDEATRMNVVVSALEASGLGPSHLDMKYVLQQLSNWQDAHSKRQQKQKVVPKGECSRRGHPPASGTSYRSSTL
notes: huntingtin-associated protein 1, rodent isoform HAP1a; Construct not described in the methods; named only in the sentence on photobleaching; source: cell lysate (COS cells as for the motility assay)
